Reference: patent publication CN106831988A (SHENZHEN INST OF ADV TECH CAS, dated 2017)

Target: T1, PD-1蛋白 (PD-1抗原) (human, UniProt Q15116 25-167, limits assumed)
T1 construct: The construct is not described; also called A蛋白
Assay: SPR, Bio-Rad ProteOn XPR36, antibody coupled to channel L6, PD-1 antigen as analyte

T1 sequence (Q15116 25-167 limits assumed): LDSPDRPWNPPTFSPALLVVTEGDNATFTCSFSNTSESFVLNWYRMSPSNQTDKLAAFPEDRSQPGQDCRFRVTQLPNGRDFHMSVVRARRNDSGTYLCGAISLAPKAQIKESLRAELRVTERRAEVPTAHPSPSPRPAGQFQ

B1: 抗人PD-1的单克隆抗体2D1 (2D1株单克隆抗体) (antibody, V domains shown)
VH: QVQLQQSGDDLVKPGASVKLSCKASGYTFTSYWINWIKQRPGQGLEWIGRIAPGSGSTYYNEMFKGKATLTVDTSSSTAYIQLSSLSSEDSAVYFCARLGQYYAMDYWGQGTTLTVSS
VL: DIVMTQTPLSLPVSLGDQASISCRSSQSLVHSNGNTYLHWYLQKPGQSPKLLIYKVSNRFSGVPDRFSGSGSGTDFTLKISRVEAEDLGVYFCSQSTHVPYTFGGGTKLELKR
notes: Mouse monoclonal antibody from a Balb/c x SP2/0 hybridoma; It was purified from ascites, and hybridoma supernatant was used in flow cytometry; it was detected with anti-mouse IgG; also called 2D1-1
Binder B1 has a Kd of 0.134 nM, a koff of 2.94e-05 s⁻¹ and a kon of 220000 M⁻¹ s⁻¹.
